Data reported in paper PMC4605270.

Biological target: Borrelia burgdorferi hybrid histidine kinase Hk1 periplasmic sensor domain D1 (Borrelia burgdorferi strain 5A4 NP1)
Assay: SEC

Borrelia burgdorferi hybrid histidine kinase Hk1 periplasmic sensor domain D1 (domain or fragment)
stoichiometry N: 2
